Test system: MS2 coat protein
Assay: apparent KD of MS2 coat protein; higher = weaker reporter binding
Settings: Eterna round: R107
Method in brief: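 Illumina sequencing clusters served as templates for on-chip transcription of the designed RNA switches. SNAP-549-labelled MS2 coat protein was then titrated in twofold steps from 0.7 or 1.5 nM to 3 µM, allowing 0.8–1.5 h per step at first and 10–20 min per step later. The buffer held 100 mM Tris-HCl pH 7.5, 80 mM KCl and 4 mM MgCl2, without or with constant ligand. Apparent KD is the median per design of normalised cluster binding-curve fits.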

[1] = input ligand: theophylline 20 uM
[2] = input ligand: theophylline 2 mM
[3] = input ligand: tryptophan 2.4 mM

Sequence	apparent KD of MS2 coat protein (input ligand: arginine 13.2 mM)	apparent KD of MS2 coat protein [1]	apparent KD of MS2 coat protein [2]	apparent KD of MS2 coat protein (input ligand: none)	apparent KD of MS2 coat protein [3]
GUGAGCGCCGAACAUCGCUGGUCCUCUAUCCGAGGACCGGUACGGCCGCCACUCGACAUGAGGAUCACCCAUGUUGGCACUGGCG [Inbemama]	9.22 nM	13.4 nM	11.7 nM		
ACAUGAGCAUCAGCCAUGUGUAUGACAUGACGAGGACCGGUACGGCCGCCACUCGACAUGAGGAUCACCCAUGUUGAGGAUCACA [Exclusion - Tryptophan A #1]	7.95 nM	11.2 nM	11.3 nM		
AUGCAUGUCAGAAGGAGCGUCUUUAACAUGAGGAUCACCCAUGUAACAUUGAAUUCGAUGAGACAGGUAGGUCGCUGAAUAGUAA [JR_SSArginiB_Sub020]	21.1 nM	72.3 nM	62.5 nM	82.8 nM	42.9 nM
CUACAUUUGUAGAAACCGGUCAACAAUAAUCGAGGACCGGUACGGCCGCCACUCGAUGUGUUAUACACAUGAGGAUCACCCAUGU [Tryptophan A 14]	21.7 nM	24.7 nM	22.9 nM		
ACGAACGAUAGCGAUACCAGACGUACAUGAGGAUCACCCAUGUUUUGGGUAAGGUUAAUAGUCCCUUGGCAGCGCUUUAAGUUCG [#10 Exclusion-TheophyllineB]	50.5 nM	89.7 nM			59 nM
AAUAGACAUGAGGAUCACCCAUGUAUGGAAGGAGCGGUGAAUAAACCAGGUAGGUCGCCAGUGUGAGGGUCAUCUAUGUAAUAAA [#18 Exclusion - Arginine A]	37.6 nM	63.3 nM	62.1 nM	49 nM	46.9 nM
GGCCCUGCGAGCGCUCGCAGGGCCGCGGAUACCAGCGAGGUCCAUCGCCCUUGGCAGCCGAACAUGAGGAUCACCCAUGUCGGUU [#1 Same State - Theophylline A Attempt #12 (HarryS)]	5.98 nM	12.3 nM	14.4 nM	11.2 nM	9.96 nM
GGAGGGACCAGAAGGAGCGACAUGAGGAUCACCCAUGUCUCCCGUUAUGGGAGUUCUUUAGGUCAGGUAGGUCGCUGGUCCCUCC [#1 Exclusion - Arginine B Attempt #6 (Inspired by Omei)]	55.7 nM	87.3 nM	138 nM	158 nM	86.1 nM
UAUCUACAUAUAUAGGUUAUUCGAUUAUUUCGAGGACCGGUACGGCCGCCACUCGUUAACAUAUACAUGAGGAUCACCCAUGUUA [JR_Nu_SSTryptoA_Sub023]	15.6 nM	19 nM	17.5 nM		
GGUGGGACUUGUGAUACCAGCCUAAUUCUAAACGAAUUGCACAUGAGGAUCACCCAUGUCGGCCCUUGGCAGCAUGAGUAUUUAU [Anartiison]	73.3 nM	104 nM			117 nM
GGCACAUAGUCGGCCGCCACUAGUAUAAGAUGGAAUAACAUGAGGAUCACCCAUGUAAAAGGGACUAGGACCGGGACUAUGUGCC [Rat]	12.2 nM	18.2 nM	15.4 nM	13 nM	12.5 nM
AGUCUUAUAGGAAGGAGCGCAUACUUCACAUGAGGAUCACCCAUGUCAAGGAGUGAGUCAAUGCAGGUAGGUCGCCUAACUAAGA [Same State - Arginine B (Freestyle 10)]	38.6 nM	112 nM	139 nM	108 nM	88.3 nM
AAAAUCCUACCUGAGGAUCACCCUGGUGAAGGAGCGCCCGAAAGGGCAGGUAGGUCGCACCUGAGGAUCACCCAGGUAACCUAAA [ArgEX 13 #DoubleMS2 #OpenEnded #AlternativeMS2]	31.7 nM	40.7 nM	44.1 nM	49.2 nM	47 nM
GUCCUCAUGACGGCCGCCACUAAACAUGAGGAUCACCCAUGUAAUGAUCCAUUAAAUGAUAAUAGUAGGACCGGGUCAAAAUAAA [Same State Typptophan B GF11]	135 nM	833 nM	979 nM		
GACUGUAAAAUAUGACUCAGGGUGACGUCCCGAGGACCGGUACGGCCGCCACUCGAGCGAAUACAUGAGGAUCACCCAUGUAGUC [theeternabot_exclusion_MS2_Trp_A_15]	20.5 nM	61.5 nM	81.2 nM	45.4 nM	54.6 nM

Reference: the supplement of paper PMC9170038
